Assay results from patent US20250325672A1.
Non-standard residues stand in square brackets, D forms with d. No end group written: not given here. Sar = CNCC(=O)O

B1: BCY16287 (peptide)
peptide: ACDVCGLNAFNRCA[Sar][Sar][Sar][Sar][Sar][Sar][KFl]
modifications: cysteine pairing not given here
B2: BCY16534 (peptide)
peptide: CASPDNPVCRFYC
modifications: not checked
B3: BCY16540 (peptide)
peptide: CYNHANPVCRYYC
modifications: not checked
B4: BCY15437 (peptide)
peptide: ACFDDWTCYIQMCA[Sar][Sar][Sar][Sar][Sar][Sar]K(Fl)
modifications: not fully specified; cysteine pairing not given here
B5: BCY15299 (peptide)
peptide: ACEDHDWVYCSTCA[Sar][Sar][Sar][Sar][Sar][Sar][KFl]
modifications: cysteine pairing not given here
B6: BCY15324 (peptide)
peptide: ACRQSQCDWWAIRSFCA[Sar][Sar][Sar][Sar][Sar][Sar][KFl]
modifications: cysteine pairing not given here
B7: BCY16312 (peptide)
peptide: CPYVAGRGTCLLC
modifications: not checked
B8: BCY16905 (peptide)
peptide: CRNPDNPVCRFYC
modifications: not checked

Key:
[1] = target: COVID-19 S1 Spike Protein Mutant G476S (SARS-CoV-2), P0DTC2; assay: FP direct binding
[2] = target: COVID-19 S1 Spike Protein Mutant E484K (SARS-CoV-2), P0DTC2; assay: FP direct binding
[3] = target: COVID-19 S1 Spike Protein Mutant A475V (SARS-CoV-2), P0DTC2; assay: FP direct binding
[4] = target: COVID-19 S1 Spike Protein Mutant F490L (SARS-CoV-2), P0DTC2; assay: FP direct binding
[5] = target: COVID-19 S1 Spike Protein Mutant L452R (SARS-CoV-2), P0DTC2; assay: FP direct binding
[6] = target: COVID-19 S1 Spike Protein Mutant N354D, D364Y (SARS-CoV-2), P0DTC2; assay: FP direct binding
[7] = target: COVID-19 S1 Spike Protein Mutant V483A (SARS-CoV-2), P0DTC2; assay: FP direct binding
[8] = target: wild-type (WT) S1 domain of the SARS-COV-2 Spike Protein (ACROBiosystems, S1N-C82E8) (SARS-CoV-2), P0DTC2; assay: FP direct binding
[9] = target: COVID-19 S1 Spike Protein Mutant A262S (SARS-CoV-2), P0DTC2; assay: FP direct binding
[10] = target: COVID-19 S1 Spike Protein Mutant P272L (SARS-CoV-2), P0DTC2; assay: FP direct binding
[11] = target: COVID-19 S1 Spike Protein Mutant K417N, E484K, N501Y (SARS-CoV-2), P0DTC2; assay: FP direct binding
[12] = target: COVID-19 S1 Spike Protein Mutant N501Y (SARS-CoV-2), P0DTC2; assay: FP direct binding
[13] = target: COVID-19 S1 Spike Protein Mutant N439K (SARS-CoV-2), P0DTC2; assay: FP direct binding
[14] = target: COVID-19 S1 Spike Protein Mutant Y453F (SARS-CoV-2), P0DTC2; assay: FP direct binding
[15] = target: Biotinylated 2019-nCoV (COVID-19) S1 protein (16-685), His, Avitag (SARS-CoV-2), P0DTC2; assay: SPR, Biacore T200, geomean

Binder | Kd [1] [nM] | Kd [2] [nM] | Kd [3] [nM] | Kd [7] [nM] | Kd [8] [nM] | also measured
B1 | 58 | 55 | 54 | 69 | – | Kd [4]: 49 nM; Kd [5]: 53 nM; Kd [6]: 1120 nM
B2 | – | – | – | – | 381 | –
B3 | – | – | – | – | > 883 | –
B4 | – | – | – | – | – | Kd [9]: 15 nM; Kd [10]: 17 nM
B5 | 944 | 475 | 710 | 988 | – | Kd [11]: 676 nM; Kd [12]: 935 nM; Kd [13]: 531 nM; Kd [14]: 579 nM; Kd [4]: 441 nM; Kd [5]: 548 nM
B6 | 588 | 1490 | 629 | 751 | – | Kd [12]: 1260 nM; Kd [13]: 529 nM; Kd [14]: 366 nM
B7 | – | – | – | – | 759 | –
B8 | – | – | – | – | – | Kd [15]: 10 nM
